{"source": "patent US10174358", "biological_target": "Cy5-EF-Tu E348C (AV) C137A,C255V,E348C (Escherichia coli) (UniProt P0CE48)", "details": "native tRNA modifications; 3'-aminoacylated with Phe; Cy3 on acp3U47; FRET titration; GTP form, 100 uM GTP, 8 mM Mg, 25 C", "data": [{"substance": "Phe-tRNAPhe(Cy3)", "values": [{"measurement": "Kd", "value": 11, "unit": "nM"}]}]}
